# Results taken from patent US20160053277A1, “Compositions Having Dicamba Decarboxylase Activity and Methods of Use” (PIONEER HI-BRED INTERNATIONAL, INC., priority 2013, published 2016).
# Numbering of substitutions follows the chain as printed.
# B1: 131 (protein)
# chain: MSLTKIDAYAHILPAKYYQKMLSVEPNIPNMFPFIKIKTLMDLDERLTKWPDQNTKQVISLANISPEDFTDSKTSAELCQSANEELSNLVDQHPGKFAGAVAILPMNNIESACKVISSIKDDENLVGAQIFTRHLGKSIADKEFRPVLAQAAKLHVPLWMHPVFDARKPDNNLVFSWEYELSQAMLQLVQSDLFQDYPNLKILVHHAGAMVPFFSGRIDHILDEKHAQDFKKFYVDTAILGNTPALQLAIDYYGIDHVLFGTDAPFAVMPSGADQIITQAINDLTISDKDKQKIFHDNYYSLIKEGHHHHHH
# modifications: Lactobacillus Acidophilus
# B2: 47 (protein, listed as Serratia odorifera)
# chain: MAKIICLEEHTLDKALVMASMPAALAQAPFLSDWGKTITDGNLPDRSRPQIEKNDLINVKGADIGRGRLDDMDEAGITMQVLSVGGFPHLISAAEGVDLNRAANDRLANAVNAHPDRFAAFATLPWAQPDAAEKELERAVKELGFKGALLNGRPSIHFLDHPDYDGLLARFNALGVPLYLHPGLPVRSVQQAYYSGFSDEVTARLSMFGWGWHHEAGIHLLRLILSGAFDKYPNLQVISGHWGEMLPFWLQRLDDSLPQAATGLRRTITQTFREQVYVTPSGMLTLPHFQFIYALLGAERILFSVDYPYQTLDGVKAFIQSLPVPEEAKEAIAFRNAERLFGLTS
# B3: 50 (protein, listed as Streptomyces sp.)
# chain: MARIVTLEEHWTDPAVTAAGMPNLLDHVPGYAAAFDPDTGMPYPRHPELLEDLGAARIADMDRHGITTQVLSLVNTFLPADVAPRLTAAANDAMAAAVEAFPGRFAAFATLPTAVPGAAADELRRCVGELGFVGTMIMGRTDGEFLDQPRFDPILRAASDLSVPVYLHPAPPPVAVSEASYAGGLSPAVSAAFRLAAWGWHQETAVHLLHLVLAGVLDRYPGLQFVLGHWGEFIPFYLDRLDESMPRRMTGLDRTFREYFRDNVFITPSGMFSQAQLRYCADTVGTDRIIHSVDFPMLGNEGAVSFLTDSHLSREDQEKIAHGNADALLGLG
# B4: 51 (protein, listed as Mycobacterium gilvum)
# chain: MARVIAIEEHYAHPGLQPAEALANLRKHPQLARIQDKLEDLGAGRLADMDAAGIDMQVLSHTVPGAEALPAAQAVDVVRQTNDDLAEVIAAHPDRFAGFAALPMRDPQAAATELQRAVGTLGFCGAMINGLIEGRFLDHPDFTPLLSTAADLGVPLYLHPSFPPPQVAQIYFGGLPPVLADLLATAGWGWHAETALHVLRLISTGVFDRLPELRVIVGHMGEMIPFALARIDTVLSPMTELRQPVAQYFQTNVWFTTSGYTTFPPLQCALSTVGIDRLIFSVDYPYTDNASARALLDTAPISPVDREKLAHATVEALLRV
# B5: 44 (protein, listed as Mycobacterium avium)
# chain: MARIITVEEHFQHPEVSARVAELTGPAVEGLAEFGNAFSLDPDSTARLGGNRLAHMDQVGIDVQVVSHGNGSPGTLQHPEAVELCRRVNNDLAAQIAENPDRFRGFATLPLYDPAAAAEELRRCVGDLGFVGALIAGSYDGLFLDDERFDPILTAAEAVDFPIYVHPGLPEAPVSQRYYAGSWPASVHMMFSGPAFGWHAEAGIHIVRLILSGALDRHPTLKLLSGHWGELAAFYLERLDETLGLLPTGLERAPSDYYRQQVWITPSGMYNQNQLNFMTAELGAQRIIYSEDFPYVVRDNVSTFLEQAGLSEADTHAIAHTNAEALLRI
# B6: 48 (protein, listed as Amycolatopsis mediterranei)
# chain: MASMKLYGLEEHFVTADVIEAWRRRDPGLAEPMMKWAVASDITPALLDVDGGRIAAMDDAGIDTTVLSLTTPGLQNLDAAEAVALQAPTNDLIAAAVRRHPGRFQGFATLATSAPAAAADELRRAVTELGLNGALVNANSRGRALDAPGFWDIYEAAEDLRAPVYLHPGVPVPAVTEAYYRGFGEPVNSMLATGAFGWHYDAGLTILRMIVAGVFDRFPGLQVILGHWGEVVLFYLDRVAAMDKLTALRRPIAEYFRSNIFITPGGISSHKYLRWSLETVGVERIMYASDYPFNTERAGSARRFLDTAPVDEAGRERIAYRNWEELIAGIRR
# B7: 132 (protein)
# chain: SLLRFSAVSRHHRGASIDPMTFSEATTPDALTPDAHTPRLLTCDVLYTGMGGAQSPGGVVVVGETVAAAGHPDELRRQYPHAAEERAGAVIAPPPVNAHTHLDMSAYEFQALPYFQWIPEVVIRGRHLRGVAAAQAGADTLTRLGAGGVGDIVWAPEVMDALLAREDLSGTLYFEVLNPFPDKADEVFAAARTHLERWRRLERPGLRLGLSPHTPFTVSHRLMRLLSDYAAGEGLPLQIHVAEHPTELEMFRTGGGPLWDNRMPALYPHTLAEVIGREPGPDLTPVRYLDELGVLAARPTLVHMVNVTPDDIARVARAGCAVVTCPRSNHHLECGTFDWPAFAAAGVEVALGTDSVASGETLNVREEVTFARQLYPGLDPRVLVRAAVKGGQRVVGGRTPFLRRGETWQEGFRWELSRDL
# modifications: Deinococcus Radiodurans
# B8: 43 (protein, listed as Rhizobium leguminosarum)
# chain: MAQGKIALEEHFAIPETLQDSAGFVPGDYWTELSARLLDIQDKRLRLMDTHGIEKMILSLNAPAVQAIPDKAKAVEISRRANDFLAEQCVKNPNRFLGFAALPLQDPDAATQELQRCVTTMGFVGALVNGFSQEGDGTTPLYYDLPQYRPFWAEVEKLDVPFYLHPRNPLPQDSRIYAGHSWLMGPTWAFAQETAVHALRLMGSGLFDEHPALRIIVGHMGEGLPYMMWRIDNRNAWVKVEKSYPAKRPIADYFNENFYITTSGNFRTQSLIDAMLEIGADRILFSADWPFENVDHAANWFDSATISEADRLKIGRTNAVSLFKLDR
# B9: 46 (protein, listed as Rhodococcus opacus)
# chain: MARIITLEEHYLDPAIAAASAPLARELSPDFAAAYDPASGLSYTPSAQVLQDLGQRRIADMDTHGISMQVLSCLTTQQVPADVAPDLVRAANDTAAAAVRAHPDRFAAFAALPTTAPDAAATELARCIDDLGFVGTMINGRTDGEFLDAPRFDPILATAAARNVPIYLHPAVPPRATSDSNYAGLAPLVTARLQTSAWGWHQETAVHFLHLVLSGVLDRYPNLQFILGHWGEMIPFYLDRLDEALPQAVTNLDRTISDYVRENVYITPSGMFNQAQLQYCVETLGVDRILYSVDYPFIGNDGAVSFLDEANLPDEAKHQIAHQNTEKLLGL
# B10: 53 (protein, listed as Granulicella tundricola)
# chain: MARTITLEEHFVTDSFLRATGAYDKPAPPWLAQLQPKLLDLGDGRIAAMDEAGIDLQVLSLAALGFDALDAATATPLVHDINDELAAAVRANPTRLAAFASLALKDPQSAARELERAIQKLGFRGVLLDGTTDGLFLDDPRFTPVFEAAVALNVPIYLHPAPPPESVFDTYFTGLPEGVGQMLSIAGWGWHAETALHTLRLITNGVFDRYPTLQLIIGHMGEMLPMALARTSKALSHAARLRQPVAAYFQSNIHLTTSGYFTQPPLRCALDVVGIDRLMFSIDYPFSANTLGRDYLTELEQTLTPEDLAKLIHRNAESLLNLS
# B11: 49 (protein, listed as Streptomyces sp.)
# chain: MAKIIALEEHFSDPAVAKAGAARARALSPGFAASYSPASGLPYSPSPEVLENLAEKRLADMDAGGITMQVLSGLGAQTVPADVAPALVAGSNDKAAAAVRAHPDRFAAFAALPTATPEAAVAELDRSVNELGFVGTLIMGRTEGEFLDAPRFEPILARAAALKVPVFLHPGVPPREITDSNYAAGLPTGIGTRLQTAAWGWHQETAVHFLHLVHSGVLDRYPDLQFILGHWGEMIPFYLDRVDEALPQRATGLDRSFHEYFRENVYLAPSGMWSQAQLRFCLETVPLERIVFAVDYPFIGNEGAVPFLEKAELPQADKRKIAHENAERLLGL
# B12: 52 (protein, listed as Streptomyces sp.)
# chain: B11 chain with R25Q, G75S, T116A, M234T, V285F, Q315E
# Assay: Saturation mutagenesis of SEQ ID NO:109: dicamba decarboxylation activity of point mutants (carbon dioxide released)
# Conditions: decarboxylation activity (carbon dioxide released) of point mutant compared with unmutated backbone protein; backbone SEQ ID NO: 109
row,Molecule,Fold Activity
1,B1,1.6
2,B2,1.2
3,B3,1.7
4,B4,1.7
5,B5,0.7
6,B6,1.5
7,B7,1.6
8,B8,1
9,B9,1.1
10,B10,1.6
11,B11,2
12,B12,1.9

# Assay: 14C assay with IPTG-induced recombinant E. coli cells: 14CO2 captured from [14C]-carboxyl-labeled dicamba
# Conditions: among the 108 sequences tested, recombinant E. coli cells
row,Molecule,decarboxylation activity of dicamba
1,B2,showed decarboxylation activity of dicamba
2,B3,showed decarboxylation activity of dicamba
3,B4,showed decarboxylation activity of dicamba
4,B5,showed decarboxylation activity of dicamba
5,B6,showed decarboxylation activity of dicamba
6,B8,showed decarboxylation activity of dicamba
7,B9,showed decarboxylation activity of dicamba
8,B10,showed decarboxylation activity of dicamba
9,B11,showed decarboxylation activity of dicamba
10,B12,showed decarboxylation activity of dicamba

# Same assay, conditions: dicamba decarboxylation activity of the protein of the given SEQ ID NO; High / Low / No
row,Molecule,Enzymatic Detection level
1,B2,High
2,B3,High
3,B4,High
4,B5,High
5,B6,High
6,B8,High
7,B9,High
8,B10,High
9,B11,High
10,B12,High

# Same assay, conditions: induced recombinant E. coli cells, [14C]-carboxyl-labeled dicamba, 14CO2 capture
row,Molecule,Dicamba Decarboxylase Activity
1,B2,High
2,B3,High
3,B4,High
4,B5,High
5,B6,High
6,B8,High
7,B9,High
8,B10,High
9,B11,High
10,B12,High
